Results taken from article PMC8220419.
Values belong to the substance of their own block, whether it stands above or below them.

What was measured:
[1] = biological target: TGFBIp A546T (residues 45–632) (human) (UniProt Q15582); test: SEC; calibrated SEC, Superdex 200 Increase 10/300 GL in PBS; TGFBIp at 7 μM
[2] = biological target: TGFBIp R124H (residues 45–632) (human) (UniProt Q15582); test: as above
[3] = biological target: TGFBIp R124H (residues 45–632) (human) (UniProt Q15582); test: in-line SEC-SAXS; in-line Superdex Increase 200 3.2/300 in 20 mM Tris, 150 mM NaCl, pH 7.4; ~0.5 to 1 mg/ml; rigid-body modeling
[4] = biological target: TGFBIp R555W (residues 45–632) (human) (UniProt Q15582); test: SEC; calibrated SEC, Superdex 200 Increase 10/300 GL in PBS; TGFBIp at 7 μM
[5] = biological target: TGFBIp R555W (residues 45–632) (human) (UniProt Q15582); test: in-line SEC-SAXS; in-line Superdex Increase 200 3.2/300 in 20 mM Tris, 150 mM NaCl, pH 7.4; ~0.5 to 1 mg/ml; rigid-body modeling
[6] = biological target: wildtype transforming growth factor-β–induced protein (TGFBIp), residues 45–632 (human) (UniProt Q15582); test: SEC; calibrated SEC, Superdex 200 Increase 10/300 GL in PBS; TGFBIp at 7 μM
[7] = biological target: wildtype transforming growth factor-β–induced protein (TGFBIp), residues 45–632 (human) (UniProt Q15582); test: in-line SEC-SAXS; in-line Superdex Increase 200 3.2/300 in 20 mM Tris, 150 mM NaCl, pH 7.4; ~0.5 to 1 mg/ml; rigid-body modeling

- stoichiometry N [1]: 2
Substance: TGFBIp A546T (residues 45–632) (from UniProt Q15582 45-632) (domain or fragment)

- stoichiometry N [2]: 2
- stoichiometry N [3]: 2
Substance: TGFBIp R124H (residues 45–632) (from UniProt Q15582 45-632) (domain or fragment)

- stoichiometry N [4]: 2
- stoichiometry N [5]: 2
Substance: TGFBIp R555W (residues 45–632) (from UniProt Q15582 45-632) (domain or fragment)

- stoichiometry N [6]: 2
- stoichiometry N [7]: 2
Substance: wildtype transforming growth factor-β–induced protein (TGFBIp), residues 45–632 (from UniProt Q15582 45-632) (domain or fragment)
